Test results: paper PMC6834915

Biological target: CdiI^Kp342 immunity protein (untagged) (Klebsiella pneumoniae 342)
Experiment: crystal structure

Substance: CdiI^Kp342 immunity protein (untagged) (natural protein)
- stoichiometry N: 2
